How the values were obtained:
Assay in all cases: cell-based or functional assay
[1] = molecular target: HA of A/Fort Monmouth/1/47 (H1N1) virus (influenza A virus)
[2] = molecular target: HA of A/New Jersey/8/76 (H1N1) virus (influenza A virus)
[3] = molecular target: HA of A/Kawasaki/9/86 (H1N1) virus (influenza A virus)
[4] = molecular target: HA of ca A/Texas/36/91 (H1N1) virus (influenza A virus)
[5] = molecular target: HA of ca A/Beijing/262/95 (H1N1) virus (influenza A virus)
[6] = molecular target: HA of ca A/New Caledonia/20/99 (H1N1) virus (influenza A virus)
[7] = molecular target: HA of ca A/swine/Missouri/06 (H2N3) virus (influenza A virus)
[8] = molecular target: HA of ca A/Vietnam/1203/04 (H5N1) virus (influenza A virus)
[9] = molecular target: HA of ca A/Hong Kong/213/03 (H5N1) virus (influenza A virus)
[10] = molecular target: HA of ca A/teal/Hong Kong/W312/97 (H6N1) virus (influenza A virus)
[11] = molecular target: HA of ca A/chicken/Hong Kong/G9/97 (H9N2) virus (influenza A virus)
[12] = molecular target: HA of A/Hong Kong/8/68 (H3N2) virus (influenza A virus)
[13] = molecular target: HA of A/Victoria/3/75 (H3N2) virus (influenza A virus, UniProt P03435 17-567)
[14] = molecular target: HA of H3-LA87 (A/Los Angeles/7/09 (H3N2)) virus (influenza A virus)
[15] = molecular target: HA of ca A/Sydney/5/97 (H3N2) virus (influenza A virus)
[16] = molecular target: HA of ca A/Panama/2007/99 (H3N2) virus (influenza A virus)
[17] = molecular target: HA of A/Wyoming/03/03 (H3N2) virus (influenza A virus)
[18] = molecular target: HA of A/Wisconsin/67/05 (H3N2) virus (influenza A virus)
[19] = molecular target: HA of ca A/Perth/16/09 (H3N2) virus (influenza A virus)
[20] = molecular target: HA of ca A/Netherlands/219/03 (H7N7) virus (influenza A virus)
[21] = molecular target: HA of ca A/Brit. Columbia/CN-6/04 (H7N3-LP) virus (influenza A virus)

Sequence of HA of A/Victoria/3/75 (H3N2) virus (P03435 17-567 limits assumed): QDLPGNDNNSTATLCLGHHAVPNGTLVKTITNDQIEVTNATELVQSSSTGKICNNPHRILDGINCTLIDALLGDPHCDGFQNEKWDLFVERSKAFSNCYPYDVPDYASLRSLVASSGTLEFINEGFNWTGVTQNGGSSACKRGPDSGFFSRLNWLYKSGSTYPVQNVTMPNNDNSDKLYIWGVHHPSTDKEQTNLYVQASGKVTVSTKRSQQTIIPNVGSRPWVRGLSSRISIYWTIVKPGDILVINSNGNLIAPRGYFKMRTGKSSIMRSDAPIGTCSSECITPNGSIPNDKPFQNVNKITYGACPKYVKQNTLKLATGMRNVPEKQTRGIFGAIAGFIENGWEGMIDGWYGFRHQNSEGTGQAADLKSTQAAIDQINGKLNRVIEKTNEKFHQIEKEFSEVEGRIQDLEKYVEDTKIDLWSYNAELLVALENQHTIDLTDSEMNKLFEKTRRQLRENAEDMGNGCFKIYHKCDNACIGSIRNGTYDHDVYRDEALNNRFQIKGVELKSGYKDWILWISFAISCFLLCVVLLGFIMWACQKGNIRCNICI

Row | Binder | Neutralization IC50, H1-FM47 [1] | Neutralization IC50, H1-NJ76 [2] | Neutralization IC50, H1-Kaw86 [3] | Neutralization IC50, H1-TX91 [4] | Neutralization IC50, H1-BJ95 [5] | Neutralization IC50, H1-Ncal99 [6] | Neutralization IC50, H2-MO06 [7] | Neutralization IC50, H5-VM04 [8] | Neutralization IC50, H5-HK03 [9] | Neutralization IC50, H6-HK97 [10] | Neutralization IC50, H9-HK97 [11] | Neutralization IC50, H3-HK68 [12] | Neutralization IC50, H3-Vic75 [13] | Neutralization IC50, H3-LA87 [14] | Neutralization IC50, H3-Syd97 [15] | Neutralization IC50, H3-Pa99 [16] | Neutralization IC50, H3-Wy03 [17] | Neutralization IC50, H3-Wl05 [18] | Neutralization IC50, H3-Perth09 [19] | Neutralization IC50, H7-NLD03 [20] | also measured
1 | Antibody 8 (antibody, V domains shown) VH: QVQLQQSGPGLVKPSQTLSLTCVISGDTVSSNRATWNWMRQSPLRGLEWLGRTYYRSKWYNDYAVSVKSRVVINPDTSKNQVSLQLNTVTPDDSGVYFCARGGHITVFGVNIDAFDIWGLGTKVTVSS VL: DIQMTQSPSSLSASVGDRVTISCRASQRLNSYLHWYQQTPGQAPKLLIYATSTLQSGVSPRFSGSGSGTDFTLTISSLQPEDVATYYCQLSRTFGHGTKVEIK | 1.37 µg/mL | 2.26 µg/mL | 2.11 µg/mL | 0.7 µg/mL | 10.6 µg/mL | 2.06 µg/mL | 2.62 µg/mL | 3.9 µg/mL | 1.82 µg/mL | 2.97 µg/mL | 26.4 µg/mL | 2.82 µg/mL | 3.83 µg/mL | > 50 µg/mL | > 50 µg/mL | > 50 µg/mL | > 50 µg/mL | > 50 µg/mL | > 50 µg/mL | 12.8 µg/mL | Neutralization IC50, H7-BC04 [21]: 14.7 µg/mL
2 | Antibody 5 (antibody, V domains shown) VH: QVQLQQSGPGLVKPSQTLSLTCAISGDRVSSNSAVWNWIRQSPSRGLEWLGRTYYRSKWYYDYAESVKSRIVIDPDTSKNQVSLQLNSVTPEDSAIYYCARGGHITVFGLNIDAYDIWGQGAMVTVSS VL: DIQMTQSPSSLSASVGDRVTISCRAQSLSSYLHWYQQKPGQPPKLLIYAATTLQSGVPSRFSGSGSGTDFTLTISTFQAEDVATYYCQQSRTFGQGTKVEIK | 0.86 µg/mL | 1.64 µg/mL | 1.01 µg/mL | 0.76 µg/mL | 5.06 µg/mL | 0.85 µg/mL | 2.38 µg/mL | 2.6 µg/mL | 1.18 µg/mL | 2.27 µg/mL | 2.43 µg/mL | 0.39 µg/mL | 0.57 µg/mL | 3.54 µg/mL | 3.03 µg/mL | 16.7 µg/mL | 0.77 µg/mL | 2.83 µg/mL | 2.22 µg/mL | 4.14 µg/mL | Neutralization IC50, H7-BC04 [21]: 5.35 µg/mL
3 | Antibody 6 (antibody, V domains shown) VH: QVQLQQSGPGLVKPSQTLSLTCAISGDRVSSNSAVWNWIRQSPSRGLEWLGRTYYRSKWYYDYAESVKSRIVIDPDTSKNQVSLQLNSVTPEDSAIYYCARGGHITEFGLNIDAYDIWGQGAMVTVSS VL: DIQMTQSPSSLSASVGDRVTISCRAQSLSSYLHWYQQKPGQPPKLLIYAATTLQSGVPSRFSGSGSGTDFTLTISTFQAEDVATYYCQQSRTFGQGTKVEIK | 3.04 µg/mL | 2.6 µg/mL | 3.51 µg/mL | 2.2 µg/mL | 20.9 µg/mL | 3 µg/mL | 2.9 µg/mL | 8.87 µg/mL | 10.4 µg/mL | 3.23 µg/mL | 16.5 µg/mL | 2.04 µg/mL | 1.09 µg/mL | 12.6 µg/mL | 6.54 µg/mL | 25.8 µg/mL | 4.7 µg/mL | 6.76 µg/mL | 5.03 µg/mL | > 50 µg/mL | Neutralization IC50, H7-BC04 [21]: > 50 µg/mL
4 | Antibody 10 (antibody, V domains shown) VH: QVQLQQSGPGLVKPSQTLSLTCAISGDSVSSNSATWNWIRQSPSRGLEWLGRTYYRSKWYNDYADFLKRRITINPDTSNNEVSLRLTSVTPDDTALYYCARGGHITVFGVNIDAFDVWGQGTMVTVSS VL: DIQMTQSPSSLSASVGDRITISCRTSQSLRSYLHWYQQKPGKAPKLLIYASSTLQSGVPSRFSGSGSGTDFTLTISNLQPEDFATYYCQLSRTFGQGTKVEIK | 1.11 µg/mL | 0.15 µg/mL | 1.62 µg/mL | 0.48 µg/mL | 4.46 µg/mL | 1.26 µg/mL | 1.04 µg/mL | 2.21 µg/mL | 1.6 µg/mL | 1.05 µg/mL | 1.76 µg/mL | 0.85 µg/mL | 0.91 µg/mL | 4.59 µg/mL | 9.29 µg/mL | 18.7 µg/mL | 1.52 µg/mL | 4.46 µg/mL | 2.56 µg/mL | 3.8 µg/mL | Neutralization IC50, H7-BC04 [21]: 3.59 µg/mL
